# What was measured:
# [1] = molecular target: HLA-A2/TyrD-S12 on T2 cells (human); assay: flow cytometry, T2 cells loaded with TyrD S12 [..], 10 µg/ml
# [2] = molecular target: HLA-A2 on cells (tumor cell lines, normal primary cells, PBMCs) (human); assay: flow cytometry, Malme-3M melanoma cells, 10 µg/ml
# [3] = molecular target: HLA-A2/P68 on T2 cells (human); assay: flow cytometry, T2 cells loaded with P68 peptide
# [4] = molecular target: HLA-A2/TyrD-S23 on T2 cells (human); assay: flow cytometry, T2 cells loaded with TyrD-S23 [..], 10 µg/ml
# [5] = molecular target: HLA-A2 on cells (tumor cell lines, normal primary cells, PBMCs) (human); assay: flow cytometry, Caco2 cells
# [6] = molecular target: HLA-A2 on cells (tumor cell lines, normal primary cells, PBMCs) (human); assay: flow cytometry, WM-266-4 melanoma cells
# [7] = molecular target: HLA-A2/TyrD-S13 on T2 cells (human); assay: flow cytometry, T2 cells loaded with TyrD S13 [..], 10 µg/ml
# [8] = molecular target: HLA-A2/TyrD-S8 on T2 cells (human); assay: flow cytometry, T2 cells loaded with TyrD S8 [..], 10 µg/ml
# [9] = molecular target: HLA-A2 on unloaded T2 cells (human); assay: flow cytometry, T2 cells
# [10] = molecular target: HLA-A2 on cells (tumor cell lines, normal primary cells, PBMCs) (human); assay: flow cytometry, astrocytes #1800, 10 µg/ml
# [11] = molecular target: HLA-A2/WT1 126-134 complex on T2 cells (human); assay: flow cytometry, T2 cells loaded with WT1 peptide
# [12] = molecular target: HLA-A2/DUSP5 on T2 cells (human); assay: flow cytometry, T2 cells loaded with DUSP5 peptide
# [13] = molecular target: HLA-A2 on other WT1 negative HLA-A2+ cells (other than 501, A498 and SKMEL; members not named); assay: flow cytometry on IM-9 cells (WT1 mRNA -)
# [14] = molecular target: HLA-A2/PAP 112-120 complex on T2 cells (human); assay: flow cytometry, T2 cells loaded with PAP112 [..], 10 µg/ml
# [15] = molecular target: HLA-A2/TyrD-S16 on T2 cells (human); assay: flow cytometry, T2 cells loaded with TyrD S16 [..], 10 µg/ml
# [16] = molecular target: HLA-A2 on cells (tumor cell lines, normal primary cells, PBMCs) (human); assay: flow cytometry, PBMCs #YE, 10 µg/ml
# [17] = molecular target: HLA-A2 on cells (tumor cell lines, normal primary cells, PBMCs) (human); assay: flow cytometry, Fib cells
# [18] = molecular target: HLA-A2 on cells (tumor cell lines, normal primary cells, PBMCs) (human); assay: flow cytometry, H522 cells, 10 µg/ml
# [19] = molecular target: HLA-A2 on unloaded T2 cells (human); assay: flow cytometry, unloaded T2 cells, 10 µg/ml
# [20] = molecular target: HLA-A2 on HLA-A2+ cells that do not express WT1 (tumor cell lines, normal primary cells); assay: flow cytometry on SKMEL-5 melanoma cells (WT1 mRNA -)
# [21] = molecular target: HLA-A2/GPLD1 on T2 cells (human); assay: flow cytometry, T2 cells loaded with GPLD1 [..], 10 µg/ml
# [22] = molecular target: HLA-A2 on cells (tumor cell lines, normal primary cells, PBMCs) (human); assay: flow cytometry, 501A melanoma cells
# [23] = molecular target: HLA-A2/Tyrosinase369-377 complex on cells (human); assay: flow cytometry, T2 cells loaded with TYR peptide
# [24] = molecular target: HLA-A2 on cells (tumor cell lines, normal primary cells, PBMCs) (human); assay: flow cytometry, colonic smooth muscle cells 2940, 10 µg/ml
# [25] = molecular target: HLA-A2/TyrD-S5 on T2 cells (human); assay: flow cytometry, T2 cells loaded with TyrD S5 [..], 10 µg/ml
# [26] = molecular target: HLA-A2/TyrD-S19 on T2 cells (human); assay: flow cytometry, T2 cells loaded with TyrD-S19 [..], 10 µg/ml
# [27] = molecular target: HLA-A2 on cells (tumor cell lines, normal primary cells, PBMCs) (human); assay: flow cytometry, H1703 cells, 10 µg/ml
# [28] = molecular target: HLA-A2 on cells (tumor cell lines, normal primary cells, PBMCs) (human); assay: flow cytometry, A375 melanoma cells, 10 µg/ml
# [29] = molecular target: HLA-A2/TyrD-S22 on T2 cells (human); assay: flow cytometry, T2 cells loaded with TyrD-S22 [..], 10 µg/ml
# [30] = molecular target: HLA-A2 on cells (tumor cell lines, normal primary cells, PBMCs) (human); assay: flow cytometry, endothelial cells HUE-1, 10 µg/ml
# [31] = molecular target: HLA-A2/TyrD-S20 on T2 cells (human); assay: flow cytometry, T2 cells loaded with TyrD-S20 [..], 10 µg/ml
# [32] = molecular target: HLA-A2/P68 on T2 cells (human); assay: flow cytometry, T2 cells loaded with P68 [..], 10 µg/ml
# [33] = molecular target: Unloaded T2 (Homo sapiens); assay: flow cytometry, unloaded T2 cells
# [34] = molecular target: HLA-A2/TyrD-S15 on T2 cells (human); assay: flow cytometry, T2 cells loaded with TyrD S15 [..], 10 µg/ml
# [35] = molecular target: HLA-A2/CMV on T2 cells (human); assay: flow cytometry, T2 cells loaded with CMV peptide
# [36] = molecular target: HLA-A2/WT1 126-134 complex on T2 cells (human); assay: flow cytometry, T2 cells loaded with WT1 1x10e-4M in DMSO
# [37] = molecular target: HLA-A2/WT1 126-134 complex on T2 cells (human); assay: flow cytometry, T2 cells loaded with WT1 peptide 1x10e-4M
# [38] = molecular target: Unloaded T2 (Homo sapiens); assay: flow cytometry, unloaded T2 cells, PE anti-mouse
# [39] = molecular target: HLA-A2/TyrD-S21 on T2 cells (human); assay: flow cytometry, T2 cells loaded with TyrD-S21 [..], 10 µg/ml
# [40] = molecular target: HLA-A2/WT1 126-134 complex on T2 cells (human); assay: flow cytometry, T2 cells loaded with WT1 peptide 1x10e-5M
# [41] = molecular target: HLA-A2/NFACT on T2 cells (human); assay: flow cytometry, T2 cells loaded with NFACT peptide
substance,measurement,setting,value
BB7.2 (antibody),MFI relative to background,[1],532
same,MFI,[2],540
same,MFI,[3],2660
same,MFI relative to background,[4],443
same,GeoMean,[5],123
same,MFI,[6],64
same,MFI relative to background,[7],749
same,MFI relative to background,[8],539
same,GeoMean,[9],1380
same,MFI,[10],751
same,MFI,[11],2320
same,MFI,[12],2470
same,MFI,[13],727
same,MFI relative to background,[14],1170
same,MFI relative to background,[15],421
same,MFI,[16],366
same,GeoMean,[17],613
same,MFI,[18],52.7
same,MFI relative to background,[19],286
same,MFI,[20],170
same,MFI relative to background,[21],364
same,MFI,[22],389
same,MFI,[23],2200
same,MFI,[24],563
same,MFI relative to background,[25],546
same,MFI relative to background,[26],555
same,MFI,[27],351
same,MFI,[28],196
same,MFI relative to background,[29],464
same,MFI,[30],133
same,MFI relative to background,[31],445
same,MFI relative to background,[32],1220
same,MFI,[33],290
same,MFI relative to background,[34],642
same,MFI,[35],2400
same,MFI,[36],722
same,MFI,[37],722
same,MFI,[38],1050
same,MFI relative to background,[39],654
same,MFI,[40],369
same,MFI,[41],2720
